Assay results as given in patent publication US20200262877A1, “ION CHANNEL-BINDING PEPTIDES AND METHODS OF USE THEREOF” (priority 2017, published 2020).

How the values were obtained:
α3β4 = molecular target: T1, α3β4 (Homo sapiens, UniProt P30926+P32297); assay: Ion channel panel (IonWorks Barracuda): α3β4; assay type: cell-based; conditions: 100% = no change, <100% = inhibition
T1 construct: host or cells: HEK293 or CHO
How it was run: (§1)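 Peptides were tested in duplicate at final 20 μM and 200 nM, with concentration set by amino acid analysis, in HEPES-buffered saline. They were applied for at least 5 min to HEK293 or CHO cells transfected with each channel. Currents were expressed as % inhibition, 1-(Ipeptide/Icontrol)×100, or % activation, Ipeptide/Icontrol×100, against a channel-matched reference compound.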

α4β2 = molecular target: T2, α4β2 (Homo sapiens, UniProt P17787+P43681); assay: Ion channel panel (IonWorks Barracuda): α4β2; assay type: cell-based; conditions: 100% = no change, <100% = inhibition
T2 construct: host or cells: HEK293 or CHO
How it was run: as §1

NR2B = molecular target: T3, NR2B (Homo sapiens, UniProt Q13224); assay: Ion channel panel (IonWorks Barracuda): NR2B; assay type: cell-based; conditions: 100% = no change, <100% = inhibition
T3 construct: host or cells: HEK293 or CHO
How it was run: as §1

TRPV1 = molecular target: T4, TRPV1 (Homo sapiens, UniProt Q8NER1); assay: Ion channel panel (IonWorks Barracuda): TRPV1; assay type: cell-based; conditions: 100% = no change, <100% = inhibition
T4 construct: host or cells: HEK293 or CHO
T4 sequence (Q8NER1 whole entry): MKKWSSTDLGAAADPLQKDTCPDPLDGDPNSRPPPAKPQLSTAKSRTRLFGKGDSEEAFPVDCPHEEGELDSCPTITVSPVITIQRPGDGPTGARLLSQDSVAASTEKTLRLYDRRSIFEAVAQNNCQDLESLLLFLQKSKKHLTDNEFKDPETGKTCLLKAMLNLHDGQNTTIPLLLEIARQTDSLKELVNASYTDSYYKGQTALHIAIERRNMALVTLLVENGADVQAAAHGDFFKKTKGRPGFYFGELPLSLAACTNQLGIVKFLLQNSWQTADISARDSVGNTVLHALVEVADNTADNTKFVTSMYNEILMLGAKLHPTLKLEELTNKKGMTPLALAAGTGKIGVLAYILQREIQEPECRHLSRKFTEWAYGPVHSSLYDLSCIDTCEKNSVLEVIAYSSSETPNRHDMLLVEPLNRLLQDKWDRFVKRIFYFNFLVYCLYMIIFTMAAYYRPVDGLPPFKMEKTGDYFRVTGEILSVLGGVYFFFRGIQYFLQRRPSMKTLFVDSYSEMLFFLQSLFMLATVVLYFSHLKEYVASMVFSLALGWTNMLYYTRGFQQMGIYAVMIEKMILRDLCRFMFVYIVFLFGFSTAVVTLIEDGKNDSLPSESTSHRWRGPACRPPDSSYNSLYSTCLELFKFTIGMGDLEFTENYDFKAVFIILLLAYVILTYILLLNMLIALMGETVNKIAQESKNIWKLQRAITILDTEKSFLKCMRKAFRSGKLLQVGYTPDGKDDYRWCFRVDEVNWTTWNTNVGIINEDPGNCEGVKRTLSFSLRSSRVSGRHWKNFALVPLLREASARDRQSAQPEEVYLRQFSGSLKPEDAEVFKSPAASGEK
How it was run: as §1

Nav1.5 = Nav1.5 (Homo sapiens, UniProt Q14524); assay: in vitro; conditions: 100% = no change; for Activity of Nav1.5 with peptide, expressed as a percentage of the reference compound: peptide at 0.2 μM; for Activity of Nav1.5 with peptide (percentage of the reference compound): peptide at 20 μM
Chain of Nav1.5 (Q14524 whole entry): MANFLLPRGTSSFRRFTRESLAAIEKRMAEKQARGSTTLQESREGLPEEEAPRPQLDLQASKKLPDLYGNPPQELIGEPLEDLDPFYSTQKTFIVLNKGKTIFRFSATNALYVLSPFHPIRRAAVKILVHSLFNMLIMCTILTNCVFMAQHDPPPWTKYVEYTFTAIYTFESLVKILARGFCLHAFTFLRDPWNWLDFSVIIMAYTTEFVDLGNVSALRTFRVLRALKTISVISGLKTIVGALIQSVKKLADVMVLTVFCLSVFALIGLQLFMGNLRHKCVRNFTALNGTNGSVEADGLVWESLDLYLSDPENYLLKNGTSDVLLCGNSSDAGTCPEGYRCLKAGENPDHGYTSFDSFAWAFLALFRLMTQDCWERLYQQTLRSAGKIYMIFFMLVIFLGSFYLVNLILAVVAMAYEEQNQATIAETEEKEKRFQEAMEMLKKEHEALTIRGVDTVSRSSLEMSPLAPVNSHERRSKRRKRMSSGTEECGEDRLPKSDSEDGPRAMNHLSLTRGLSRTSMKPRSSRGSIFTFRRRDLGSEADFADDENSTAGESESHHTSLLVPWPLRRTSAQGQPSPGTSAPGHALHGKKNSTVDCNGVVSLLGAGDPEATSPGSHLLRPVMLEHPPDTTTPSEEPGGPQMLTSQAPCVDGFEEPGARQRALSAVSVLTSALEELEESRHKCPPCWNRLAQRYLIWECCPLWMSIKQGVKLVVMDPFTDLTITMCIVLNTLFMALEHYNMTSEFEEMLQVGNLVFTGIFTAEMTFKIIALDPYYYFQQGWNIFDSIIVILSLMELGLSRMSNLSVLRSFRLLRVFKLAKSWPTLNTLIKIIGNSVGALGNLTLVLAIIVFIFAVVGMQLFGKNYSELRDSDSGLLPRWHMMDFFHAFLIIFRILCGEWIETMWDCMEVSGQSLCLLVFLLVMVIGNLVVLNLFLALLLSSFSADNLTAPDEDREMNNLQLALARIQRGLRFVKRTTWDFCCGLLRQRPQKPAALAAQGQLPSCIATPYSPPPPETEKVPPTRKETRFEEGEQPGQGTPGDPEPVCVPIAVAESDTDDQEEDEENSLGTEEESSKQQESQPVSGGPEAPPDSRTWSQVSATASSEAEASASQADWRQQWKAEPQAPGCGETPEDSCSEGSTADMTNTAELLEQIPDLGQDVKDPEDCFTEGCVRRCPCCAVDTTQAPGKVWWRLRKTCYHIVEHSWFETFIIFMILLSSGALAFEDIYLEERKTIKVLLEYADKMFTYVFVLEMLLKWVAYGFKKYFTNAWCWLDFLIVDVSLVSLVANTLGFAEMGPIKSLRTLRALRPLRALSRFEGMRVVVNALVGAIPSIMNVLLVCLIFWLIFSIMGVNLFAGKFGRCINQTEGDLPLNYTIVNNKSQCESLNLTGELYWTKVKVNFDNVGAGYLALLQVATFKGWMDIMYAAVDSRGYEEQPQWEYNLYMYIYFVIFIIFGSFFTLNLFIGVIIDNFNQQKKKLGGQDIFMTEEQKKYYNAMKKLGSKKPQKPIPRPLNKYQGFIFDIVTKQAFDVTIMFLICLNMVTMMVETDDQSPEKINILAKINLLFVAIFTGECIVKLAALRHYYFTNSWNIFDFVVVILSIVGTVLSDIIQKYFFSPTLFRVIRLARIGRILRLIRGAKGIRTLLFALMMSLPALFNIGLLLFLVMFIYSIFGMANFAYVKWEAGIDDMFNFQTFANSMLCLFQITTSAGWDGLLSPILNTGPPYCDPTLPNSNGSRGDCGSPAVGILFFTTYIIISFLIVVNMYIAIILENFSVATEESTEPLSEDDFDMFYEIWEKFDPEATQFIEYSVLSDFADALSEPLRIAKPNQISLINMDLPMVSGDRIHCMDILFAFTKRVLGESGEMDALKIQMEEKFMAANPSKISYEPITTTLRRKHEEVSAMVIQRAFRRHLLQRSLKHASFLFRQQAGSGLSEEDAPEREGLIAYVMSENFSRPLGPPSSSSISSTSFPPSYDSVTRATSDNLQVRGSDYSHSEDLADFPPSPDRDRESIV
How it was run: as §1

hERG = hERG (Homo sapiens, UniProt Q12809); assay: in vitro; conditions: 100% = no change, <100% = inhibition
How it was run: as §1

Kv2.1 = molecular target: T5, Kv2.1 (Homo sapiens, UniProt Q14721); assay: cell-based; conditions: 100% = no change, <100% = inhibition
T5 construct: host or cells: HEK293 or CHO
How it was run: as §1

Cav2.2 = molecular target: T6, Cav2.2 (Homo sapiens, UniProt Q00975); assay: cell-based; conditions: 100% = no change, <100% = inhibition
T6 construct: host or cells: HEK293 or CHO
How it was run: as §1

Cav2.1 = molecular target: T7, Cav2.1 (Homo sapiens, UniProt O00555); assay: cell-based; conditions: 100% = no change, <100% = inhibition
T7 construct: host or cells: HEK293 or CHO
How it was run: as §1

5HT3a = molecular target: T8, 5HT3a (Homo sapiens, UniProt P46098); assay: Ion channel panel (IonWorks Barracuda): 5HT3a; assay type: cell-based
T8 construct: host or cells: HEK293 or CHO
T8 sequence (P46098 whole entry, looked up): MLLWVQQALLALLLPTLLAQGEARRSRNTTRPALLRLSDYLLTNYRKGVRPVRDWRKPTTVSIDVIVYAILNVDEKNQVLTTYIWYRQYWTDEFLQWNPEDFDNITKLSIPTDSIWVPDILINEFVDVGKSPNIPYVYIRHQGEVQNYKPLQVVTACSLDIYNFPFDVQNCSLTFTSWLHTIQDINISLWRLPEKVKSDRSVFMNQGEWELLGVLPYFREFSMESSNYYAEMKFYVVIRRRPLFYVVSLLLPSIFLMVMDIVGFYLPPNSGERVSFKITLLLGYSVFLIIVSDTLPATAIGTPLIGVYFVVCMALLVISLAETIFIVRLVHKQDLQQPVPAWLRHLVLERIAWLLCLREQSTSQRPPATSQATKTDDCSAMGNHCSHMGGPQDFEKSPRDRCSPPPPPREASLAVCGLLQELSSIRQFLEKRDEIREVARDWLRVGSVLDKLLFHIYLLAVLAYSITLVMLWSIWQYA
How it was run: as §1

Kv1.3 = molecular target: T9, Kv1.3 (Homo sapiens, UniProt P22001); assay: cell-based; assay type: cell-based; conditions: 100% = no change, <100% = inhibition
T9 construct: host or cells: HEK293 or CHO
How it was run: as §1

Kv1.2 = molecular target: T10, Kv1.2 (Homo sapiens, UniProt P16389); assay: cell-based; assay type: cell-based; conditions: 100% = no change, <100% = inhibition
T10 construct: host or cells: HEK293 or CHO
How it was run: as §1

Kv1.1 = molecular target: T11, Kv1.1 (Homo sapiens, UniProt Q09470); assay: cell-based; assay type: cell-based; conditions: 100% = no change, <100% = inhibition
T11 construct: host or cells: HEK293 or CHO
How it was run: as §1

Kir2.1 = molecular target: T12, Kir2.1 (Homo sapiens, UniProt P63252); assay: Ion channel panel (IonWorks Barracuda): Kir2.1; assay type: cell-based; conditions: 100% = no change, <100% = inhibition
T12 construct: host or cells: HEK293 or CHO
How it was run: as §1

GABA = assay: Ion channel panel (IonWorks Barracuda): GABA; assay type: cell-based; conditions: 100% = no change, <100% = inhibition
How it was run: as §1

TRPA1 = molecular target: T13, TRPA1 (Homo sapiens, UniProt O75762); assay: Ion channel panel (IonWorks Barracuda): TRPA1; assay type: cell-based; conditions: 100% = no change, <100% = inhibition
T13 construct: host or cells: HEK293 or CHO
How it was run: as §1

Nav1.7 = molecular target: T14, Nav1.7 (Homo sapiens, UniProt Q15858); assay: cell-based; assay type: cell-based; conditions: 100% = no change; for Activity of Nav1.7 with peptide, expressed as a percentage of the reference compound: peptide at 0.2 μM; for Activity of Nav1.7 with peptide (percentage of the reference compound): peptide at 20 μM
T14 construct: host or cells: HEK293 or CHO
T14 sequence (Q15858 whole entry): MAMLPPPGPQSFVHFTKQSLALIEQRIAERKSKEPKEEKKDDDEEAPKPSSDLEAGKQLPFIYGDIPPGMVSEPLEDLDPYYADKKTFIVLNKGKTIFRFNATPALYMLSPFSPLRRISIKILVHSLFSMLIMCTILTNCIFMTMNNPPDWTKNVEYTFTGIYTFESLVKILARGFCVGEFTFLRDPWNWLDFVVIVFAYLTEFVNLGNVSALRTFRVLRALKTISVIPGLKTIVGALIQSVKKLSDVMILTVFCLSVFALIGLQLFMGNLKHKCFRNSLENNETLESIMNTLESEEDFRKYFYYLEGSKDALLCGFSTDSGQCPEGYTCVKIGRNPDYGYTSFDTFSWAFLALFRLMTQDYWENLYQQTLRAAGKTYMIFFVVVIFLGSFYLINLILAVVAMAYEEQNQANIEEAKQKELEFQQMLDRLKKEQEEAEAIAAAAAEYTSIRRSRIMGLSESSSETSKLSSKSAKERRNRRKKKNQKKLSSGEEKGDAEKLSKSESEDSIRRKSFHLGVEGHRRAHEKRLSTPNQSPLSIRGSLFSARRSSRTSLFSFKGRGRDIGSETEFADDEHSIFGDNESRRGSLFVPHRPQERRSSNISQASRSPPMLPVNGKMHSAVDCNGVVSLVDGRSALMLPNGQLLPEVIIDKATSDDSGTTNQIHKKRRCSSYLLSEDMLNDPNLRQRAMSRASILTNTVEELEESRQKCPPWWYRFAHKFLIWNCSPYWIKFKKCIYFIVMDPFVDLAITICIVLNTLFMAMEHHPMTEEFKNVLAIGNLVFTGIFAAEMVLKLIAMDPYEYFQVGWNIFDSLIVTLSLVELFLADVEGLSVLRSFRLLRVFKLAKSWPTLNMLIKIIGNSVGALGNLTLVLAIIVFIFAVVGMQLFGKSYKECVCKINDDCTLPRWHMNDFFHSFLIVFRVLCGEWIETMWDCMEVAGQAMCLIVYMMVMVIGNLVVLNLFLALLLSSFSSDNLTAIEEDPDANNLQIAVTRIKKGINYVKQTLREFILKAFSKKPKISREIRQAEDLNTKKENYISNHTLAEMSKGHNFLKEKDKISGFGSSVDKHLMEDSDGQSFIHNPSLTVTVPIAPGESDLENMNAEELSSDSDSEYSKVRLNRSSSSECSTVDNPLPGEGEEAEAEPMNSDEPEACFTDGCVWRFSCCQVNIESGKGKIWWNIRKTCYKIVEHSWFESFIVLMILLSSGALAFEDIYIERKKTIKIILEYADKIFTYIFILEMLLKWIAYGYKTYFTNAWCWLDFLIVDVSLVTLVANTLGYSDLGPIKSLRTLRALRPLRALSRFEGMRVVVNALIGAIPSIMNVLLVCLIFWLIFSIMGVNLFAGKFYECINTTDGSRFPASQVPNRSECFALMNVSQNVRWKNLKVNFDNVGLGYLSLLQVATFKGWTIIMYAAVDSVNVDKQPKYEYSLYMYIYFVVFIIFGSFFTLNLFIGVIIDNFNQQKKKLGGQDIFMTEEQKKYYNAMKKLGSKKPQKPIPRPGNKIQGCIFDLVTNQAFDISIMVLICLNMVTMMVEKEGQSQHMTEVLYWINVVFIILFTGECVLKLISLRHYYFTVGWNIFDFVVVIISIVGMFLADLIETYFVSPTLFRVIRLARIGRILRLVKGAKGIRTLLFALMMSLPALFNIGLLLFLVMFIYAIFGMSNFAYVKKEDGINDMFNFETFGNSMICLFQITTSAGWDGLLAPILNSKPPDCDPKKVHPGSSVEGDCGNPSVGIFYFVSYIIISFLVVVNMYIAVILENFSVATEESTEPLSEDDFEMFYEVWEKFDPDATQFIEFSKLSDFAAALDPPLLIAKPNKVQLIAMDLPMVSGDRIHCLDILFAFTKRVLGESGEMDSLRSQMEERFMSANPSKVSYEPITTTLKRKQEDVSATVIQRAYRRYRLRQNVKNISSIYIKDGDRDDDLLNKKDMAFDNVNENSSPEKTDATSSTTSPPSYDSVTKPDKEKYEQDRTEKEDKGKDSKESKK

NR2A = molecular target: T15, NR2A (Homo sapiens, UniProt Q12879); assay: Ion channel panel (IonWorks Barracuda): NR2A; assay type: cell-based; conditions: 100% = no change, <100% = inhibition
T15 construct: host or cells: HEK293 or CHO
How it was run: as §1

[1] = first of two Nav1.5 columns (probably TP1)
[2] = second of two Nav1.5 columns (probably TP2)
[3] = first of two Nav1.7 columns (probably TP1)
[4] = second of two Nav1.7 columns (probably TP2)

Substance: 32 (GSQDKCKKVYENYPVSKCQLANQCNYDCKLDKHARSGECFYDEKRNLQCICDYCEY) [compound 32]
- Activity of a3b4 with peptide, expressed as a percentage of the reference compound (α3β4; peptide at 0.2 μM): 100%
- Activity of a3b4 with peptide (percentage of the reference compound) (α3β4; peptide at 20 μM): 96%
- Activity of a4b2 with peptide, expressed as a percentage of the reference compound (α4β2; peptide at 0.2 μM): 81%
- Activity of a4b2 with peptide (percentage of the reference compound) (α4β2; peptide at 20 μM): 86%
- Activity of NR2B with peptide, expressed as a percentage of the reference compound (NR2B; peptide at 0.2 μM): 76%
- Activity of NR2B with peptide (percentage of the reference compound) (NR2B; peptide at 20 μM): 106%
- Activity of TRPV1 with peptide, expressed as a percentage of the reference compound (TRPV1; peptide at 0.2 μM): 99%
- Activity of TRPV1 with peptide (percentage of the reference compound) (TRPV1; peptide at 20 μM): 84%
- Activity of Nav1.5 with peptide, expressed as a percentage of the reference compound (Nav1.5; [1]): 108%
- Activity of Nav1.5 with peptide, expressed as a percentage of the reference compound (Nav1.5; [2]): 101%
- Activity of Nav1.5 with peptide (percentage of the reference compound) (Nav1.5; [1]): 90%
- Activity of Nav1.5 with peptide (percentage of the reference compound) (Nav1.5; [2]): 90%
- Activity of hERG with peptide, expressed as a percentage of the reference compound (hERG; peptide at 0.2 μM): 90%
- Activity of hERG with peptide (percentage of the reference compound) (hERG; peptide at 20 μM): 65%
- Activity of Kv2.1 with peptide, expressed as a percentage of the reference compound (Kv2.1; peptide at 0.2 μM): 92%
- Activity of Kv2.1 with peptide (percentage of the reference compound) (Kv2.1; peptide at 20 μM): 93%
- Activity of Cav2.2 with peptide, expressed as a percentage of the reference compound (Cav2.2; peptide at 0.2 μM): 102%
- Activity of Cav2.2 with peptide (percentage of the reference compound) (Cav2.2; peptide at 20 μM): 101%
- Activity of Cav2.1 with peptide, expressed as a percentage of the reference compound (Cav2.1; peptide at 0.2 μM): 98%
- Activity of Cav2.1 with peptide (percentage of the reference compound) (Cav2.1; peptide at 20 μM): 92%
- Activity of 5HT3a with peptide (percentage of the reference compound) (5HT3a): 105%
- Activity of 5HT3a with peptide, expressed as a percentage of the reference compound (5HT3a): 95%
- Activity of Kv1.3 with peptide, expressed as a percentage of the reference compound (Kv1.3; peptide at 0.2 μM): 98%
- Activity of Kv1.3 with peptide (percentage of the reference compound) (Kv1.3; peptide at 20 μM): 98%
- Activity of Kv1.2 with peptide, expressed as a percentage of the reference compound (Kv1.2; peptide at 0.2 μM): 89%
- Activity of Kv1.2 with peptide (percentage of the reference compound) (Kv1.2; peptide at 20 μM): 112%
- Activity of Kv1.1 with peptide, expressed as a percentage of the reference compound (Kv1.1; peptide at 0.2 μM): 76%
- Activity of Kv1.1 with peptide (percentage of the reference compound) (Kv1.1; peptide at 20 μM): 114%
- Activity of Kir2.1 with peptide, expressed as a percentage of the reference compound (Kir2.1; peptide at 0.2 μM): 95%
- Activity of Kir2.1 with peptide (percentage of the reference compound) (Kir2.1; peptide at 20 μM): 79%
- Activity of GABA with peptide, expressed as a percentage of the reference compound (GABA; peptide at 0.2 μM): 98%
- Activity of GABA with peptide (percentage of the reference compound) (GABA; peptide at 20 μM): 105%
- Activity of TRPA1 with peptide, expressed as a percentage of the reference compound (TRPA1; peptide at 0.2 μM): 130%
- Activity of TRPA1 with peptide (percentage of the reference compound) (TRPA1; peptide at 20 μM): 108%
- Activity of Nav1.7 with peptide, expressed as a percentage of the reference compound (Nav1.7; [3]): 96%
- Activity of Nav1.7 with peptide, expressed as a percentage of the reference compound (Nav1.7; [4]): 97%
- Activity of Nav1.7 with peptide (percentage of the reference compound) (Nav1.7; [3]): 87%
- Activity of Nav1.7 with peptide (percentage of the reference compound) (Nav1.7; [4]): 61%
- Activity of NR2A with peptide, expressed as a percentage of the reference compound (NR2A; peptide at 0.2 μM): 95%
- Activity of NR2A with peptide (percentage of the reference compound) (NR2A; peptide at 20 μM): 110%
